# Experimental data reported in the RNAGym collection of RNA variant scans (doi:10.1073/pnas.2313332121).
# B1: TPR t1 (parent)
# chain: GACCAAUCUGCCCUCAGAGCUCGAGAACAUCUUCGGAUGCAGAGGAGGCAGGCUUCGGUGGCGCGAUAGCGCCAACGUCCUCAACCUCCAAUGCAUCCCACCACAUGAUGAUGCCUGAAGAGCCUUGGUUUUUUG
# Variants of: B1
# Assay: polymerase ribozyme fitness, log enrichment relative to wild type (log ratio); higher = more active; in vitro selection for triplet polymerase activity
# Procedure, shortened: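 Genotype fitness is the logarithm of its enrichment divided by wild-type enrichment, using inverse-variance-weighted averages of replicates. That logarithm is base 2. Enrichment was measured by Illumina sequencing of input and output libraries from one triplicate in vitro selection round, with frozen incubation at −7 °C, on PCR-built, transcribed mutant libraries of each subunit of a heterodimeric triplet polymerase ribozyme, retaining genotypes with ≥10 input reads and ≥1 read per output.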
row,Variant,polymerase ribozyme fitness (log ratio)
1,GACCAAUCUGCCCUCAGAGCUCGAGAACAUCUUCGGAUGCAGAGGAGGCAGGCUUCGGUGUCGCGCUAGCGCCAACGUCCUCAACCUCCAAUGCAUCCCACCACAUGAUGAUGACUGAAGAGCCUUGGUUUUUUG,-2.88
2,GACCAAUCUGCCCUCAGAGCUCGAGAACAUCUUCGGAUGCAGAGGAGGCAGGCUUCGGUGUCGCGAUAGCGCCAACGUCCUCAACCUCCAAUGCAUCCCACCACAUGAUGAUGCCUGAAGUGCCUUGGUUUUUUG,1.48
3,GACCAAUCUGCCCUCAGAGCUCGAGAACAUCUUCGGAUGCAGAGGAGGCAGGCUUCGGUGCCGCGAUAGCGCCAACGUCCUCAACCACCAAUGCAUCCCACAACAUGAUGAUGCCUGAAGAGCCUUGGUUUUUUG,-5.28
4,GACCAAUCUGCCCUCAGAGCUCGAGAACAUCUUCGGAUGCAGAGGAGGCAGGCUUCGGUGUCGCGAUAGCGCCAACGUCCUCAACCUCCAAUGGAUCCCACCACAUGAUGAUGCCUGAAGAGCCUUGGUUUUUUG,-0.934
5,GACCAAUCUGCCCUCAGAGCUCGAGAACAUCUUCGGAUGCAGAGGAGGCAGGCUUCGGUGUCGCGAUAGCGCCAACGUCCUCAACCUCCAAUGCAUCCCACCACAUGAUGAUGCCUGAAGAGCAUUGGUUUUUUG,1.54
6,GACCAAUCUGCCCUCAGAGCUCGAGAACAUCUUCGGAUGCAGAGGAGGCAGGCUUCGGUGCCGCGAUAGCGCCAACGACCUCAACCUCCAAUACAACCCACCACAUGAUGAUGCCUGAAGAGCCUUGGUUUUUUG,-1.93
7,GACCAAUCUGCCCUCAGAGCUCGAGAACAUCUUCGGAUGCAGAGGAGGCAGGCUUCGGUGCCGCGAUAGCGCCAACGUCCUCAACCUUCCAUGCAUCCCACCACAUGAUUAUGCCUGAAGAGCCUUGGUUUUUUG,-5.87
8,GACCAAUCUGCCCUCAGAGCUCGAGAACAUCUUCGGAUGCAGAGGAGGCAGGCUUCGGUGUCGCGAUAGCGCCAACGUCCUCAACCUCCAGUACAUCCCACCACUUGAUGAUGCCUUAAGAGCCUUGGUUUUUUG,-6.5
9,GACCAAUCUGCCCUCAGAGCUCGAGAACAUCUUCGGAUGCAGAGGAGGCAGGCUUCGGUGCCGCGAUAGCGCCAACGUCCUCAACCUCCAAUGCAUCCCACCACAUGAUGAUGACUGAAGAGCCUUGGUUUUUUG,-2.18
10,GACCAAUCUGCCCUCAGAGCUCGAGAACAUCUUCGGAUGCAGAGGAGGCAGGCUUCGGUGCCGCGAUAGCGCCAACGUCCUCAACCUCAAAUGCAUCCCACCACAUGAUGAUGCCUGAAGGGCCUUGGUUUUUUG,-2.4
11,GACCAAUCUGCCCUCAGAGCUCGAGAACAUCUUCGGAUGCAGAGGAGGCAGGCUUCGGUGCCGCGAUAGCGCCAACGUCCUCAACCUCCAAUGCAUCCCACCACAUGAUGAUGCCUGAAGAACCUUGGUUUUUUG,-2.5
12,GACCAAUCUGCCCUCAGAGCUCGAGAACAUCUUCGGAUGCAGAGGAGGCAGGCUUCGGUGUCGCGAUAGCGCCAACGUCCUCAACCUCCAAUGCAUCCCACCACAUGAUGAUGACUGAAGAGCCUUGGUUUUUUG,-1.12
13,GACCAAUCUGCCCUCAGAGCUCGAGAACAUCUUCGGAUGCAGAGGAGGCAGGCUUCGGUGCCGCGAUAGCGCCAACGUCCUCAACCUCCAAUGCAUCCCACCACAUGAUGAUGCCUGAAGAGACUUGGUUUUUUG,-0.578
14,GACCAAUCUGCCCUCAGAGCUCGAGAACAUCUUCGGAUGCAGAGGAGGCAGGCUUCGGUGCCGCGAUAGCGCCAACGUCCUCAACCUCAAAUGCAUCCCACCACAUGAUGAUGCCUGAAGAGCCUUGGUUUUUUG,-3.5
15,GACCAAUCUGCCCUCAGAGCUCGAGAACAUCUUCGGAUGCAGAGGAGGCAGGCUUCGGUGUCGCGAUAGCGCCAACGUCCUCAACCUCCAAUGCAUCCCACCACAUGAUUAUGCCUGAAGAGCCUUGGUUUUUUG,-0.117
16,GACCAAUCUGCCCUCAGAGCUCGAGAACAUCUUCGGAUGCAGAGGAGGCAGGCUUCGGUGUCGCGAUAGCGCCAACGUCCUCAACCUCCAAUGCAUCCCACCACAUGAUCAUGCCUGAAGAGCCUUGGUUUUUUG,-2.85
17,GACCAAUCUGCCCUCAGAGCUCGAGAACAUCUUCGGAUGCAGAGGAGGCAGGCUUCGGUGUCGCGAUAGCGCCAACGUACUCAACCUCCAAUGCAUCCCACCACAUGAUGAUGCCUGAAGAGCCUUGGUUUUUUG,-0.952
18,GACCAAUCUGCCCUCAGAGCUCGAGAACAUCUUCGGAUGCAGAGGAGGCAGGCUUCGGUGUCGCGAUAGCGCCAACGUCCUGAACCUCCAAUGUAUCCCACCACAUGAUGAUGCCUGAAGAGCCUUGGUUUUUUG,-0.714
19,GACCAAUCUGCCCUCAGAGCUCGAGAACAUCUUCGGAUGCAGAGGAGGCAGGCUUCGGUGUCGCGAUAGCGCCAACGUCCUCAACCUCCAAUGCAUCCCACCGCAUGAUGAUGCCUGAAGAGCCUUGGUUUUUUG,-4.75
20,GACCAAUCUGCCCUCAGAGCUCGAGAACAUCUUCGGAUGCAGAGGAGGCAGGCUUCGGUGUCGCGAUAGCGCCAGCGUCCUGAACCUCCAAUGCAUCCCCCCACAUGAUGAUUCCUGAAGAGCCUUGGUUUUUUG,-5.51
21,GACCAAUCUGCCCUCAGAGCUCGAGAACAUCUUCGGAUGCAGAGGAGGCAGGCUUCGGUGCCGCGAUAGCGCCAACGUCCUCAACCUCCAAUGCAUCCCACCACAUGAUGAUGCCUGAAAAGCCUUGGUUUUUUG,0.0588

row,Variant,polymerase ribozyme fitness (log ratio)
1,GACCAAUCUGCCCUCAGAGCUCGAGAACAUCUUCGGAUGCAGAGGAGGCAGGCUUCGGUGUCGCGAUAGGGCCAACGUCCUCAACCUCCAAUGCAUCCCACCACAUGAUGAUGCCUGAAGAGCCUUGGUUUUUUG,-4.08
2,GACCAAUCUGCCCUCAGAGCUCGAGAACAUCUUCGGAUGCAGAGGAGGCAGGCUUCGGUGCCGCGAUAGCGCCAACGUCCUCAACCUCCAAUGCAUCCCACCACACGAUGAUGCCUGAAGAGCCUUGGUUUUUUG,-2.89
3,GACCAAUCUGCCCUCAGAGCUCGAGAACAUCUUCGGAUGCAGAGGAGGCAGGCUUCGGUGUCGCGCUAGCGCCAACGUCCUCAACCUCCAAUGCAUCCCACCACAUGAUGAUGCCUGAAGAGCCUUGGUUUUUUG,-3.18
4,GACCAAUCUGCCCUCAGAGCUCGAGAACAUCUUCGGAUGCAGAGGAGGCAGGCUUCGGUGCCGCGAUAGCGCCAACGUCCUCAACCUCCAAUGCAUCCCACCACAUGAUGAUGCCUAAAGAGCCUUGGUUUUUUG,-2.2
5,GACCAAUCUGCCCUCAGAGCUCGAGAACAUCUUCGGAUGCAGAGGAGGCAGGCUUCGGUGCCGCGAUAGCGCCAACGUCCUCAACCUCCAAUGCAUCCCAGCACAUGAUGACGCCUGAAGAGCCUUGGUUUUUUG,-2.46
6,GACCAAUCUGCCCUCAGAGCUCGAGAACAUCUUCGGAUGCAGAGGAGGCAGGCUUCGGUGCCGCGAUAGCGCCAACGUCCUCAACCUCCAAUGCAUCCCACCACAUGAUGAUGCCUGAAGAGCCUUGGAUUUUUG,-3.33
7,GACCAAUCUGCCCUCAGAGCUCGAGAACAUCUUCGGAUGCAGAGGAGGCAGGCUUCGGUGCCGCGAUAGCGCCAACGGCCUCAACCUCCAAUGCAUCCCACCACAUGAUGAUGCCUGAAGAGCCUUGGUUUUUUG,-4.7
8,GACCAAUCUGCCCUCAGAGCUCGAGAACAUCUUCGGAUGCAGAGGAGGCAGGCUUCGGUGCCGCGAUAGCGCCAACGCCCUCAACCUCCAAUGCAUCCCACCACAUGAUGAUGCCUGAAGAGCCUUGGUUUUAUG,-3.51
9,GACCAAUCUGCCCUCAGAGCUCGAGAACAUCUUCGGAUGCAGAGGAGGCAGGCUUCGGUGUCGCGAUAGCGCCAACGUCCUCAACCUCCAAUGCAUACCCCCACAUGAUGAUGCCUGAAGAGCCUUGGUUUUUUG,-3.32
10,GACCAAUCUGCCCUCAGAGCUCGAGAACAUCUUCGGAUGCAGAGGAGGCAGGCUUCGGUGUCGCGAUAGCGCCAACGUCCUCCACCUCGAAUGCAUCCCACCACAUGAUGAUGCCUGAAGAGCCUUGGUUUUUUG,-1.83
11,GACCAAUCUGCCCUCAGAGCUCGAGAACAUCUUCGGAUGCAGAGGAGGCAGGCUUCGGUGCCGCGAUAGCGCCAACGUCCUCAACCACCAAUGCAUCCCACCACAUGAUGAUGCCUGAAGAGCCUUGGUUUUUUG,-1.83
12,GACCAAUCUGCCCUCAGAGCUCGAGAACAUCUUCGGAUGCAGAGGAGGCAGGCUUCGGUGUCGCGAUAGCGCCAACGUCCUCAACGUCCAAUGCAUCCCACCACAUGAUGAUGCCUGAAGAGCCUUGGUUUUUUG,-1.55
13,GACCAAUCUGCCCUCAGAGCUCGAGAACAUCUUCGGAUGCAGAGGAGGCAGGCUUCGGUGUCGCGAUAGCGCCAACGUACUCAACCUCCAAUGCAUCCCACCAUAUGAUGAUGCCUGAAGAGCCUUGGUUUUUUG,-0.851
14,GACCAAUCUGCCCUCAGAGCUCGAGAACAUCUUCGGAUGCAGAGGAGGCAGGCUUCGGUGUCGCGAUAGCGCCAACGUCCUCAACCUCCAAUGCAUCCCACCACAUUAUGAUGCCUGAAGAGCCUUGGUUUUUUG,-4.51
15,GACCAAUCUGCCCUCAGAGCUCGAGAACAUCUUCGGAUGCAGAGGAGGCAGGCUUCGGUGUCGCGAUAGCGCCAACGUCCUCAACCUCCAAUGCAUCCAACCACAUGAUGAUGCAUGAAGAGCAUUGGUUUUUUG,-4.46
16,GACCAAUCUGCCCUCAGAGCUCGAGAACAUCUUCGGAUGCAGAGGAGGCAGGCUUCGGUGCCGCGAUAGCGCCAACGUCCUCAACCUCCAAUGCAUCCCACCACAUGAUGAUGCCUGAAGAGCCUUGUUUUUUUG,-3.46
17,GACCAAUCUGCCCUCAGAGCUCGAGAACAUCUUCGGAUGCAGAGGAGGCAGGCUUCGGUGCCGCGAUAGCGCCAACGUCCUCAACCUCCAAUGCAUCCCACCACAUGAUGAUGCCUGAAGAGCCUUGAUUUUUUG,-3.41
18,GACCAAUCUGCCCUCAGAGCUCGAGAACAUCUUCGGAUGCAGAGGAGGCAGGCUUCGGUGUCGCGAUAGCGCCAACGUCAUCAACCUCCAAUGCAUCCCACCACAUGAUGAUGCCUGAAGAGCCUUGGUUUUUUG,-2.59
19,GACCAAUCUGCCCUCAGAGCUCGAGAACAUCUUCGGAUGCAGAGGAGGCAGGCUUCGGUGUCGCGAUAGCGCCAACGUCCUCAACCUCCAAUGUAUCCCACCACAUGAUGAAGCGUGAAGAGCCUUGGUUUUUUG,-0.199
20,GACCAAUCUGCCCUCAGAGCUCGAGAACAUCUUCGGAUGCAGAGGAGGCAGGCUUCGGUGCCGCGAUAGCGCCAACGUCCUCAACCUCCAAUGCAUCCCACCACAUAAUGAUGCCUGAAGAGCCUUGGUUUUUUG,-6.66
21,GACCAAUCUGCCCUCAGAGCUCGAGAACAUCUUCGGAUGCAGAGGAGGCAGGCUUCGGUGUCGCGAUAGCGCCAACGUCCUCAACCUCCAAUGCAUCCCACCACAUGAUGAUGCCUGAAGAGUCUUGGUUUUUUG,1.8
